Test results: publication PMC4917648, “praja2 regulates KSR1 stability and mitogenic signaling” (Cell Death & Disease, 2016)

Molecular target: T1, kinase suppressor of Ras 1 (KSR1), endogenous (human (endogenous in HEK293), UniProt Q8IVT5 1-923)
T1 sequence (looked up): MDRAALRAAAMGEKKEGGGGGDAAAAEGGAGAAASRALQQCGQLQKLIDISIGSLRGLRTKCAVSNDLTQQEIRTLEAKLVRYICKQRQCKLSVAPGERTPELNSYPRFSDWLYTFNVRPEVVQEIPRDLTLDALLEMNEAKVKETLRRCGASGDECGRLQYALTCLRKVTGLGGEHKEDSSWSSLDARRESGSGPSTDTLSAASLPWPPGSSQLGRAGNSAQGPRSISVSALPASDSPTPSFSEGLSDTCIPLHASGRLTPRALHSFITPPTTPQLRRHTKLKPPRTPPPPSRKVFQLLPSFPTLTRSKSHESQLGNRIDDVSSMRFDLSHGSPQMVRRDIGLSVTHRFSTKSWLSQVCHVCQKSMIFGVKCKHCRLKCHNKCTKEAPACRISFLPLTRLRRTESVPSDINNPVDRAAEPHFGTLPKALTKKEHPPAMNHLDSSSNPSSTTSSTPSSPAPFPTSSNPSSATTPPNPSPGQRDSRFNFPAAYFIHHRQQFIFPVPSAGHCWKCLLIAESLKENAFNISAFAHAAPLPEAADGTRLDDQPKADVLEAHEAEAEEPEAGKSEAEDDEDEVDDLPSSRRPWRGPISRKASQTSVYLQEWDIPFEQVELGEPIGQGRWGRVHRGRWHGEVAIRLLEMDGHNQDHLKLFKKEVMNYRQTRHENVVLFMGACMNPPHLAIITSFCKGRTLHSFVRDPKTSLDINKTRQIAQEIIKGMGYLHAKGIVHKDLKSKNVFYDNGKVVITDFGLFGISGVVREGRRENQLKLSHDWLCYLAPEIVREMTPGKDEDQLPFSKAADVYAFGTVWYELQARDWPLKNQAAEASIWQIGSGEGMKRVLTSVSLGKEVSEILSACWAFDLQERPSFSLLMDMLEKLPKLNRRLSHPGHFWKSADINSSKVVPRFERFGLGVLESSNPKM
Experiment: cell-based or functional assay

growth of MCF-7 cells treated for 48 h with go-onERK-Flag against scrambled-Flag (cell counts): ~2 fold
B1: praja2 (endogenous) (natural protein, human (endogenous in HEK293), UniProt O43164 1-708, looked up)
chain: MSQYTEKEPAAMDQESGKAVWPKPAGGYQTITGRRYGRRHAYVSFKPCMTRHERSLGRAGDDYEVLELDDVPKENSSGSSPLDQVDSSLPSEPIFEKSETEIPTCGSALNQTTESSQSFVAVHHSEEGRDTLGSSTNLHNHSEGEYIPGACSASSVQNGIALVHTDSYDPDGKHGEDNDHLQLSAEVVEGSRYQESLGNTVFELENREAEAYTGLSPPVPSFNCEVRDEFEELDSVPLVKSSAGDTEFVHQNSQEIQRSSQDEMVSTKQQNNTSQERQTEHSPEDAACGPGHICSEQNTNDREKNHGSSPEQVVRPKVRKLISSSQVDQETGFNRHEAKQRSVQRWREALEVEESGSDDLLIKCEEYDGEHDCMFLDPPYSRVITQRETENNQMTSESGATAGRQEVDNTFWNGCGDYYQLYDKDEDSSECSDGEWSASLPHRFSGTEKDQSSSDESWETLPGKDENEPELQSDSSGPEEENQELSLQEGEQTSLEEGEIPWLQYNEVNESSSDEGNEPANEFAQPAFMLDGNNNLEDDSSVSEDLDVDWSLFDGFADGLGVAEAISYVDPQFLTYMALEERLAQAMETALAHLESLAVDVEVANPPASKESIDGLPETLVLEDHTAIGQEQCCPICCSEYIKDDIATELPCHHFFHKPCVSIWLQKSGTCPVCRRHFPPAVIEASAAPSSEPDPDAPPSNDSIAEAP
